In patent US20250282887A1 (Amgen, published 2025):

T1: Human MAGEB2 (Melanoma-associated antigen B2) (human, UniProt O15479 1-319)
T1 construct: Intracellular antigen detected by IHC in FFPE material: CHO cells transfected with human MAGEB2 (mCherry vector with Myc/DDK tags, or ORF without tags)
T1 sequence: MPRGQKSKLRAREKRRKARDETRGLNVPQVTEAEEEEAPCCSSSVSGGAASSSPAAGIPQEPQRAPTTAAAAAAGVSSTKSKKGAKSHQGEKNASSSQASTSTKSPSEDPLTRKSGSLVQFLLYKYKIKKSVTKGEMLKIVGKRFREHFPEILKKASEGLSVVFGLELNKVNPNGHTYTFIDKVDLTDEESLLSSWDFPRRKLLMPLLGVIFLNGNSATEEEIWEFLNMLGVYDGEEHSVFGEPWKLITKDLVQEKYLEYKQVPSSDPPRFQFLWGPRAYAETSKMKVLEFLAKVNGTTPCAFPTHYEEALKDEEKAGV

T2: human MAGEB6 (human, UniProt Q8N7X4 1-407)
T2 construct: whole, on cells; FFPE cell pellets
T2 sequence (looked up): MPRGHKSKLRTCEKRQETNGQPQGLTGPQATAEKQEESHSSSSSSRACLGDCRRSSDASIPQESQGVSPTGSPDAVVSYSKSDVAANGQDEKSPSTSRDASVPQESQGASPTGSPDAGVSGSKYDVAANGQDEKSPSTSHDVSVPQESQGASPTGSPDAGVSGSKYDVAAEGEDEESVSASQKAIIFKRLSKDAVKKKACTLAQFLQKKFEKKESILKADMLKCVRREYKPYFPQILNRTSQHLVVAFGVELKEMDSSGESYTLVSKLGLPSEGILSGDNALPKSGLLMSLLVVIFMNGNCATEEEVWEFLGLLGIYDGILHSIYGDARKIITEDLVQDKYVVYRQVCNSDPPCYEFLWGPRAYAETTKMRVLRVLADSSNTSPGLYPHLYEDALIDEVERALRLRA

T3: human MAGEA1 (human, UniProt P43355 1-309)
T3 construct: whole, on cells; FFPE cell pellets
T3 sequence (looked up): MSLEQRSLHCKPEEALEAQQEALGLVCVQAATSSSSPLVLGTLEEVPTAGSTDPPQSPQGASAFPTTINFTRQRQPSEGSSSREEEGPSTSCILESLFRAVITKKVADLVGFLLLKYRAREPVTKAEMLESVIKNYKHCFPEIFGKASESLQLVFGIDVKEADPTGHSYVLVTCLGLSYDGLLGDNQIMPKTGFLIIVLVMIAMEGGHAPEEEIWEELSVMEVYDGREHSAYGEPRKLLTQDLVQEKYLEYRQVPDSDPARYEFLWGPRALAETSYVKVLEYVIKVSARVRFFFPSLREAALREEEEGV

T4: human MAGEA11 (human, UniProt P43364 1-429)
T4 construct: whole, on cells; Transfected into CHO cells with Myc/DDK tags
T4 sequence (looked up): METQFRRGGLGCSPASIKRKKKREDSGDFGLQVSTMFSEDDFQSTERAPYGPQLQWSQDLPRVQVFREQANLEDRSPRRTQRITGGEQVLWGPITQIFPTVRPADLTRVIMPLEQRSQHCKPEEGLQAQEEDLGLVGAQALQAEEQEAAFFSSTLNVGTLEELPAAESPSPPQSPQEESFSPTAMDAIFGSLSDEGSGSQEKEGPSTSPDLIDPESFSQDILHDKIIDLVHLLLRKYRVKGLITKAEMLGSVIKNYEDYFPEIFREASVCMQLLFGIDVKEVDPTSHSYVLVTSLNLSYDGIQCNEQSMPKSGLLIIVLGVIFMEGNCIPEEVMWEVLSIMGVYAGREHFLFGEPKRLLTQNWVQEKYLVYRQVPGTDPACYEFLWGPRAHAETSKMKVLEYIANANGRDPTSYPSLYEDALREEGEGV

B1: 1C3 (antibody, V domains shown)
VH: QSLEESGGGLVQPEGSLTLTCTAFGVTLTNYYICWVRQAPGKGLEWVGCIDNANGRTYYASWAKGRFTISKTSSTTGTLQMTSLTAADTATYFCARSLATPLWGPGTLVTVSS
VL: DIVMTQTPSSVEAAVGGTVTIKCQASQNISSYLAWYQQKPGQPPKLLIYRASTLASGVPSRFKGSGSGTQFTLTISDLECADAATYYCQSYDDSRSSNFFYAFGGGTEVVVKG
notes: also called MAGE-B2 (IC3); anti-MAGEB2 antibody 1C3
B2: 4G17 (antibody, IgG1, V domains shown)
VH: QSLEESGGGLVQPEGSLTLTCTASGVTLSNYYICWVRQAPGKGLEWIGCIDNVNGRTYYASWAKGRFTISKTSSTTGTLQMTSLTAADTATYFCARSLATPLWGPGTLVTVSS
VL: DIVMTQTPASVEAAVGGTVTIKCQASQNIDSYLAWYQQKPGQPPKLLIYRASTLASGVPSRFKGSGSGTEFTLTISDLECADAATYYCQSYDDSRSSSFFYGFGGGTEVVVK
notes: Rabbit monoclonal IgG1; Tested as supernatant and as small batch purified antibody; also called MAGE-B2 (4G17); anti-MAGEB2 antibody 4G17
B3: 1J15 (antibody, IgG1, V domains shown)
VH: QSLEESGGGLVQPEGSLTLTCTAFGFTLNNYYICWVRQAPGKGLEWIACIDNANGRTYYASWAKGRFTISKTSSTTVTLQMTSLTAADTATYFCARSLSTPLWGPGTLVTVSS
VL: DIVMTQTPASVEAAVGGTVTIKCQASQSISSYLSWYQQKPGQPPKLLIYRASTLASGVPSRFRGSGSGTQFTLTISDLECADAATYYCQSYDDSSDNNFFYGFGGGTEVVVR
notes: Rabbit monoclonal IgG1; Tested as supernatant and as small batch purified antibody; also called MAGE-B2 (IJ15); anti-MAGEB2 antibody 1J15
B4: 1I14 (antibody, V domains shown)
VH: QSVEESGGRLVTPGTPLTLTCTISGFSLSSYAMSWVRQAPGKGLEWIGSIGGGGSAVYASWAKGRFTISKTSTTVDLRITSPTTEDTAMYFCGRGFYSIDLWGPGTLVTVSS
VL: DVVMTQTPASVEATVGGTVTIKCQSSQSVYDNNALAWYQQNAGQRPRLLIYGASTLASGVPSRFSASGSGTEFTLTISDLECADAATYYCQCTYYVSSYQNDFGGGTEVVVKG
notes: also called MAGE-B2 (1i14)

Experiments:
[1] = molecular target: T1, Human MAGEB2 (Melanoma-associated …); assay: IHC on FFPE U20S cells (endogenous MAGEB2)
Procedure: (§1) FFPE samples were sectioned at 4 μm and mounted on positive charged glass slides. After mounting, paraffin sections were air-dried at room temperature. FFPE TMA samples were received as freshly sectioned and mounted on glass slides. The fully automated IHC assay was performed on a Discovery Ultra Stainer (Ventana Medical Systems, Tucson, AZ) using Ventana Anti-Rabbit HQ (cat #760-4815), Ventana Anti-HQ HRP (cat #760-4820), and Ventana Antibody Diluent with Casein (cat #760-219) (Ventana Medical Systems, Tucson, AZ). The slides were baked on the Discovery Ultra Stainer at 60° C. for 8 minutes, de-paraffinized with Ventana Discovery wash (cat #950-510) for 3 cycles (8 minutes each) at 69° C., and underwent cell conditioning (target retrieval) at 95° C. for 16 minutes (for cell arrays) or 32 minutes (tissues or TMAs) in CC1 buffer (cat #950-500). Following this, slides were incubated with Background Sniper (cat #BS966M, Biocare Medical, Pacheco, CA) in a Ventana Option Prep kit (cat #771-751) for 28 minutes, incubated with CM inhibitor (a part of the Ventana DAB kit cat #760-159) for 12 minutes, and incubated for 1 h at RT with MAGE-B2 antibody diluted with Ventana diluent with Casein in a Ventana Prep kit (cat #770-001) (working concentration at 0.1 μg/ml for cell pellet, or 1-5 ug/ml for tissues) or with a matched concentration of isotype control Rabbit IgG1 antibody. Following this, slides were incubated with the Ventana Anti-Rabbit HQ (cat #760-4815) for 28 minutes at RT, Ventana Anti-HQ HRP (cat #760-4820) for 28 minutes at RT, and signals detected with Ventana DAB chromogen kit (cat #760-159) for 5 minutes at RT. Slides were counterstained with Ventana Hematoxylin II (cat #5266726001) for 8 minutes and Ventana Bluing reagent (cat #526676900) for 4 minutes. Slides were coverslipped and digitized using an Aperio AT2 scanner (Leica Biosystems Inc, Buffalo Grove, IL).

[2] = molecular target: T1, Human MAGEB2 (Melanoma-associated …); assay: IHC on FFPE T98G cells (endogenous MAGEB2)
Procedure: as §1

human MAGEB6 = molecular target: T2, human MAGEB6; assay: IHC, FFPE CHO cells transfected with human MAGEB6
Procedure: as §1

human MAGEA2 = molecular target: T5, human MAGEA2 (human, UniProt P43356 1-314); assay: IHC, FFPE CHO cells transfected with human MAGEA2
T5 construct: whole, on cells; FFPE cell pellets
Procedure: as §1

human MAGEA1 = molecular target: T3, human MAGEA1; assay: IHC, FFPE CHO cells transfected with human MAGEA1
Procedure: as §1

[3] = molecular target: T1, Human MAGEB2 (Melanoma-associated …); assay: IHC on FFPE UACC-257 cells (endogenous MAGEB2)
Procedure: as §1

human MAGEA11 = molecular target: T4, human MAGEA11; assay: IHC, FFPE CHO cells transfected with human MAGEA11
Procedure: as §1

T5 sequence (P43356 whole entry): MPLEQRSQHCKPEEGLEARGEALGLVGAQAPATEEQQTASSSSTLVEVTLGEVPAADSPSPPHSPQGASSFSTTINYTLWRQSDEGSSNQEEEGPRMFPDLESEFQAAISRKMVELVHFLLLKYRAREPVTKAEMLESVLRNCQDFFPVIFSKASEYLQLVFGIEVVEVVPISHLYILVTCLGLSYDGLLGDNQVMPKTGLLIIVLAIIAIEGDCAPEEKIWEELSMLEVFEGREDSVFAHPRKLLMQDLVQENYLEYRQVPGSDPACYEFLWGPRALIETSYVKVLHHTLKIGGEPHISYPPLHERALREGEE

Row | Binder | IHC % Frequency [1] [%] | IHC Intensity [1] | IHC % Frequency [2] [%] | IHC Intensity [2] | binding result (human MAGEB6) | binding result (human MAGEA2) | binding result (human MAGEA1) | IHC % Frequency [3] [%] | binding result (human MAGEA11) | IHC Intensity [3]
1 | B1 | 60 | 2 | 70 | 2 | no binding (tested: 0.1 µg/ml) | no binding (tested: 0.1 µg/ml) | no binding (tested: 0.1 µg/ml) | 0 | no binding (tested: 0.1 µg/ml) | 
2 | B2 | 60 | 2 | 70 | 2 | no binding (tested: 0.1 µg/ml) | no binding (tested: 0.1 µg/ml) | no binding (tested: 0.1 µg/ml) | 0 | no binding (tested: 0.1 µg/ml) | 0
3 | B3 | 50 | 1 | 70 | 1 | no binding (tested: 0.1 µg/ml) | no binding (tested: 0.1 µg/ml) | no binding (tested: 0.1 µg/ml) | 0 | no binding (tested: 0.1 µg/ml) | 0
4 | B4 | 70 | 2 | 70 | 2 | no binding (tested: 0.1 µg/ml) | no binding (tested: 0.1 µg/ml) | no binding (tested: 0.1 µg/ml) | 0 | no binding (tested: 0.1 µg/ml) | 
